# Data taken from PMC3842668, “Dual-acting stapled peptides target both HIV-1 entry and assembly” (Retrovirology, 2013).
# Where no end group is shown, it is not given here.
# How the values were obtained:
# NYAD-36 = test: ITC; settings: both partners purified
# NYAD-67 = test: ITC; settings: both partners purified
binder,measurement,setting,value
CTRPNYNKRKRIHIGPGRAFYTTKNIIGTIRQAHC (also: cyclic (mode not given here)) [full-length cyclic V3 loop peptide],Kd,NYAD-36,350 ± 30 nM
same,Kd,NYAD-67,990 ± 40 nM
